Test results reported in the supplement of paper PMC12764529.
± gives the half width of the 95% confidence interval.

Key:
[1] = folding stability dG unfold (combined trypsin and chymotrypsin); higher = more stable
Summary of the method: (§1)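 Only designs with AlphaFold2 dimer inter-PAE above 15 were retained; each was a mini-protein under 80 residues with no cysteine, in a PA-tagged cDNA display construct. After digestion with trypsin and chymotrypsin and sequencing, K50 was inferred by Bayesian fitting of counts, and unfolding free energy was derived per protease or combined against a sequence-predicted unfolded-state K50 and a shared folded-state K50.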

[2] = folding stability dG unfold from chymotrypsin proteolysis; higher = more stable
Summary of the method: as §1

[3] = folding stability dG unfold from trypsin proteolysis; higher = more stable
Summary of the method: as §1

Sequence | folding stability dG unfold [1] [kcal/mol] | folding stability dG unfold [2] [kcal/mol] | folding stability dG unfold [3] [kcal/mol]
SMKKPIDLIKKLGYTLTSVTKLPNGTTLITFEHPDSTVTVTVNPDGNIKITTTNPKNGTTTTTTIPVNKLSA [r9_2_JUSTAS] | 2.08 ± 0.15 | 2.31 ± 0.099 | 1.95 ± 0.08
SMKMSPEEKLKELAKELAEKLEEETGKKVKVRVTVEYNGKTFEIEIEEGETIEDIRNKFPGLKIKVEIEPSA [r9_513_TrROS_Hall] | 1.08 ± 0.41 | 0.00992 ± 0.22 | 1.34 ± 0.17
SMKPGAEITIEPFPDGMYKITLPDGRERIFSPNGIAIEITPNKIKIEMFHPGKPIMEMEVEIPPPDPNDPSA [r9_901_TrROS] | 0.987 ± 0.43 | 0.771 ± 0.16 | 0.912 ± 0.19
SMKPGDTVIVKIEIEKKVDGKTVKKTIEKEIKIKPGETVEIELKGLPKGAKVRVEIFNADGKLIEEKELPSA [r9_478_TrROS_Hall] | 1.8 ± 0.08 | 1.46 ± 0.042 | 2.23 ± 0.075
SMKPGEKLEIEVEIKVEEEDEEKRKKALEEAEEKLRELFEKLGLKDIKKVEVVEVEKLPDGTVKVKIRIDSA [r9_754_TrROS_Hall] | 1.71 ± 0.24 | 1.32 ± 0.11 | 2.39 ± 0.18
SMKPGELVLVTETETRTFTVTPEDLPPGWKVKEVKVTVTRVALFRVTPDGRVELVEEVTSVEIEVTLEPESA [r9_747_TrROS_Hall] | 4.52 ± 0.22 | 4.54 ± 0.1 | 4.39 ± 0.42
SMKPGETVRVTFKTKDGSKIEIEFKNGKPVRITVYNKNGEKVKEIEVTLDELKELAEKLGIEEIVEVEKVSA [r9_1107_TrROS_Hall] | 3.26 ± 0.35 | 3.44 ± 0.077 | 2.76 ± 0.19
SMKTITIPADTLSPEEIEALLKELGFDPEKIKISTEGDKLVVTVPDMIVFLTPPPPVPTVPPTNPERLAALS [r1_57_JUSTAS] | 0.31 ± 0.15 | -0.141 ± 0.36 | 0.643 ± 0.036
SMKTKTVTLDLSPEDPEAARAAVEAAIAEARAADPDTEVTVTVTISPEHPELLAEIEALAAERGVSLVLGSA [r9_1202_JUSTAS] | 2.81 ± 0.097 | 2.84 ± 0.06 | 2.74 ± 0.058
SMKTVTLNFPSLSEEEVRALAEELEATGRYRVEKIDSSTPNIKVTVLEEPPEPRPPPPPALVRDADARAASA [r9_830_JUSTAS] | 1.4 ± 0.12 | 1.83 ± 0.12 | 1.08 ± 0.088
SMKVERERRTIERTLPDGRKVKVEIDLFRPEDGKPWALIKITVTDENGVPTEREILAPAELAEKVIEELFSA [r9_189_TrMRF] | 2.08 ± 0.069 | 1.78 ± 0.039 | 2.34 ± 0.055
SMKVIIIERPDESGVPVVIVLPEEEALELYRKLFNVPMSVEEFAEKLKELNPNVKVEVVPLEEVSEEVLLSA [r9_1085_JUSTAS] | 2.35 ± 0.18 | 2.28 ± 0.058 | 2.23 ± 0.086
SMKVKPGEKIKVTVLALFYDKETKKLYLVKAEVEATVELDEDGNLTVKVEVKKVEVVEEMPLDELKELLKSA [r9_423_TrROS_Hall] | 2.97 ± 0.18 | 3.4 ± 0.067 | 2.29 ± 0.14
SMKVVKLYTDPEGRVVIEITLPKPDGTPVSEEEAKAIADEIAAELKPKYPNATFEITYDPKTGVVTITIGSA [r9_485_JUSTAS] | 2.97 ± 0.1 | 2.51 ± 0.053 | 3.49 ± 0.13
SMLKPGDIVKLPNGPIYVVKKLTISYDPSTSPPKLELELVPLGEPKPVLKEYTLPDGSTKTEIGYYWTGPSA [r9_914_TrMRF] | 0.98 ± 0.12 | 0.995 ± 0.11 | 0.922 ± 0.031
SMLNPDDPSVPERLVLVIPVPEEAVENGDFEVVRAKVEEAAEELEPLGWRVVSVEFDTETKEARLVLERPSA [r9_75_TrMRF] | 3.617 ± 0.032 | 3.506 ± 0.021 | 3.76 ± 0.07
SMLPLLPPRRLLIEVVFPLPEDATPEQLELAERAAEALADVLEALGFKDVRVLVEPTDPGDVLILAEVEASA [r9_865_TrMRF] | 1.82 ± 0.074 | 1.97 ± 0.034 | 1.49 ± 0.023
SMLTITDENGNTITLPAAGEPVTLTVEIEVDGYTVTVEITFDADTKKITIKVEVTNPNGEKQTFTFTFDLSA [r9_1073_TrROS_Hall] | 3.84 ± 0.16 | 4.23 ± 0.083 | 2.92 ± 0.12
SMLVSVTFPLTLEPEEGDHTVRIYATAPDGSSLGEVTAPVKAVGDKVEFEVTATFPLPEGAVIERIETEPSA [r9_292_TrMRF] | 0.869 ± 0.084 | 0.857 ± 0.12 | 0.681 ± 0.025
SMPAEMSPEEVREAVRALVEEALAANPGEPVTVPIEEIRAALPGYSPEVLREVLGLTEEEIAAGPVTLRLSA [r9_525_JUSTAS] | 0.483 ± 0.12 | -0.45 ± 0.35 | 0.885 ± 0.042
SMPEIKVEKKNGKLTITVPKGAKIKIKIEVNGKKIEKEVEVKEGETVTITIELPPNMPKDVKIKEIEIEKSA [r9_1152_TrROS_Hall] | 1.88 ± 0.13 | 1.93 ± 0.13 | 1.61 ± 0.066

Sequence | folding stability dG unfold [1] [kcal/mol] | folding stability dG unfold [2] [kcal/mol] | folding stability dG unfold [3] [kcal/mol]
SMPEKYIVRVEVRGRDGKTVTFEAEATVDSSDFDDFIEAILEAPGLEDADEVRFYVYRLGTGRPEEFTVPSA [r9_97_TrMRF] | 2.7 ± 0.069 | 3.03 ± 0.06 | 2.01 ± 0.069
SMPEVRVEEVTIELEFTLPDGRTVRVEIRLTRVTLPDGRVFTRLEIKVEVPEEDEEARKLLKELLEELLSSA [r9_908_TrROS_Hall] | 4.69 ± 0.12 | 4.75 ± 0.13 | 4.52 ± 0.14
SMPGVRVRLYTVRVKTPEGGELTAPIAVPAELFTEEEIRELVREAFPDAEDVEIEPAVLELPPAPGLLTASA [r9_841_TrMRF] | 1.43 ± 0.079 | 1.31 ± 0.1 | 1.39 ± 0.034
SMPLIIIAKKNKDGTGTILIKKGDKVIEIEFEKNIKPEELKKKAIETALTLKKKTEELGIPIEIKEIIFESA [r9_751_TrMRF] | 2.1 ± 0.091 | 2.23 ± 0.077 | 1.77 ± 0.082
SMPLLVKVDTPEQREKLLKVLEEIEKETDIKIELVSEHPDGKYEFLIEAPLEEAVKIAKKLKEAGNVEIVSA [r9_472_TrMRF] | 3.7 ± 0.1 | 3.48 ± 0.12 | 3.89 ± 0.19
SMPPEDPGELTLVVPDTRNVTVTLPVPVPPEARVLVTFSDGRRVEAPAGTELTFTIPPGRPYVIRVEVYASA [r9_79_TrMRF] | 1.6 ± 0.076 | 1.86 ± 0.085 | 1.2 ± 0.027
SMPPGERYRMTMKFPDGKKITLEMNPGGWWRIKVENKNGKPQHQQPIPPDNPQELAENFGIDKVTDVEPVSA [r9_1107_TrROS] | 2.05 ± 0.17 | 2.02 ± 0.2 | 2.01 ± 0.095
SMPPLGEETTLLETIELPEKLTVEIRRVTLPNGVPLIEVSKTDPSGNTTPIFRAPGNDPAALAAARAALASA [r9_1069_JUSTAS] | 0.262 ± 0.21 | -0.0163 ± 0.47 | 0.438 ± 0.078
SMPTLKITIEKKLPNGEKKKIEIEISLEELLKEARKKKGLESEEEAREALAKELAEKLKEEGYKVKIEPVSA [r9_868_TrROS_Hall] | 0.525 ± 0.32 | 0.209 ± 0.42 | 0.855 ± 0.17
SMPVGVEELAERLAEEIEKELSEKTGVPVKVEKITVEEDPATGTVTVTITLYLPDGKKIREESLTVPVLESA [r9_60_JUSTAS] | 1.53 ± 0.065 | 1.52 ± 0.037 | 1.59 ± 0.051
SMSFEAELTLPDQPVTVPVTLDPATGTATVTVTTTHPDRDETTTTTVTVSDPSELLALLRELPPGATLRLSA [r9_713_JUSTAS] | 0.771 ± 0.068 | 0.974 ± 0.059 | 0.307 ± 0.079
SMSIELDAESIEEIADFLKKAIEDGNPDAKIRIELYPLGGEREEREYDSIDEIIAELKKGPARIRIELEPSA [r9_589_TrMRF] | 1.88 ± 0.11 | 2.29 ± 0.11 | 1.36 ± 0.037
SMSLVVSEEVDPATGTTTVTTTFPSPGVTVTATASAAGDSVTTTVTTTSPAPSAPTTTTTTTPVAPPGTDAS [r1_404_JUSTAS] | 0.806 ± 0.087 | -0.3 ± 0.077 | 1.55 ± 0.067
SMSVSTSTEKLPTDLYITEKEIKIEPVDPTKNVYRVTVKTTIVDKNGNVVKEEEKEEIIPLSELEKRIKSSA [r9_234_JUSTAS] | 1.54 ± 0.28 | 1.61 ± 0.1 | 1.2 ± 0.085
SMSVVVPPDEGLTVTLTTLPGGTIEIHVGDTVLTRDVAPGETLTVTVPPDRTGNTVTVVGPGGVVVTSSGSA [r9_143_JUSTAS] | 0.95 ± 0.044 | 0.71 ± 0.024 | 1.18 ± 0.048
SMTIELTVPSPEELLAALKALADAGIKGAKIRITVTNPDGEEQEIEVDSIEDLEALIESGPVTVRVEIEPSA [r9_589_TrROS_Hall] | 3.05 ± 0.14 | 2.5 ± 0.084 | 3.56 ± 0.13
SMTIRIVDEKTKEVREIKIENLTVEKEKDGRYRMTREQVLEALKKLLPEDVKIVEVEENEDGELTIVVEPSA [r9_997_TrROS_Hall] | 2.77 ± 0.083 | 2.906 ± 0.025 | 2.41 ± 0.051
SMTISIPGGITITIEPKPNSYTLTVSFPDGSTVTRPVDPSDLTSAIKAVIREALRRADPNITEEEIEKLLSA [r9_634_JUSTAS] | > 6 | 6.07 ± 0.17 | 4.39 ± 0.1
SMTITVKPENIEEVLAQIKALAAKHPKPVTITLEMSPEEVEKLRKALEDAGYKVEVDEKTGKVRIEIKVPSA [r9_600_TrROS_Hall] | 3.63 ± 0.074 | 3.05 ± 0.096 | 4.52 ± 0.22
SMTLVLDVSPDKAYKFKIEYKTPDGKRLTVDADTTMEPDGTARVPLKIPDSSVPPGTPLEIEKVEVTPLLSA [r9_359_JUSTAS] | 0.436 ± 0.066 | 0.699 ± 0.099 | -0.136 ± 0.085
SMTPEEVKALAEELAERLKEEGYEVEVKVTVEEVDGEKYVTIEIEVRRPDGSTETFRLVIREDGSIEIYPSA [r9_1027_TrROS_Hall] | 4.37 ± 0.17 | 4.54 ± 0.17 | 3.49 ± 0.19
